Test results as given in PMC2822935, “A novel fragment derived from the β chain of human fibrinogen, β43–63, is a potent inhibitor of activated endothelial cells in vitro and in vivo” (British Journal of Cancer, 2010).

Biological target: T1, recombinant human αvβ3 (human, UniProt P06756 31-992; P05106 27-718)
T1 construct: integrin αv, human; integrin β3, human; also called soluble αvβ3; recombinant αvβ3; source: bought: Calbiochem (Merck)
Test: ELISA; solid-phase direct binding assay: 96-well plates coated overnight with 10 μg/ml β43–63 or 0.5 μg/ml vitronectin, blocked with 5% BSA in PBS; recombinant αvβ3 incubated 1.5 h; detected with anti-αvβ3 antibody, anti-mouse-HRP and OPD, read at 450 nm; nonspecific binding to plastic subtracted
Settings: both partners purified

T1 sequence (P06756 31-992, chain 1 of 2): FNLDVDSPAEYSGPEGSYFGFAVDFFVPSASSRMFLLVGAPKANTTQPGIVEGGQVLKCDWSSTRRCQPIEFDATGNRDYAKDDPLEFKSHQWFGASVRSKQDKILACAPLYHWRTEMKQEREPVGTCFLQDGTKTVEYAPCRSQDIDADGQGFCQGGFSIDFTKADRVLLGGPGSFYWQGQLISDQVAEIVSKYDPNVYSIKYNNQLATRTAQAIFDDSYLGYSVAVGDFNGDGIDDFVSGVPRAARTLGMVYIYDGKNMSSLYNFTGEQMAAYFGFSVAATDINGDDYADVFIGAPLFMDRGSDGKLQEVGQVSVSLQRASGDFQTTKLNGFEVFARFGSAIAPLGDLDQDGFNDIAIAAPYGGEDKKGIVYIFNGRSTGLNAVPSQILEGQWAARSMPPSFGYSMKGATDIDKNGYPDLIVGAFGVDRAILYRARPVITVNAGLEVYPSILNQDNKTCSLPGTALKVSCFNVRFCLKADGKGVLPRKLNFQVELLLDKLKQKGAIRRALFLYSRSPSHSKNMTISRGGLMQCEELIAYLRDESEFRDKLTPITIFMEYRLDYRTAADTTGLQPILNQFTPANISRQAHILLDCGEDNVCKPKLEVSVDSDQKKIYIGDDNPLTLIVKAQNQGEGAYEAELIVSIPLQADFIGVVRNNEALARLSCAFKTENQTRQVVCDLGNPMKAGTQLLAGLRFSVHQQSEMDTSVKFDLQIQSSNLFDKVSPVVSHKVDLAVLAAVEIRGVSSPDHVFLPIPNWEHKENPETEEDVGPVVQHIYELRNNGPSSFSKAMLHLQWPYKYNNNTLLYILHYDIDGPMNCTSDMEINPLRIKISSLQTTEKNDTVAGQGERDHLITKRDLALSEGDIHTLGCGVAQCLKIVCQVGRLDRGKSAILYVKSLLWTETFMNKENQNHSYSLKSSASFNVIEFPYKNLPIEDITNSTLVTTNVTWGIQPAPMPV
T1 sequence (P05106 27-718, chain 2 of 2): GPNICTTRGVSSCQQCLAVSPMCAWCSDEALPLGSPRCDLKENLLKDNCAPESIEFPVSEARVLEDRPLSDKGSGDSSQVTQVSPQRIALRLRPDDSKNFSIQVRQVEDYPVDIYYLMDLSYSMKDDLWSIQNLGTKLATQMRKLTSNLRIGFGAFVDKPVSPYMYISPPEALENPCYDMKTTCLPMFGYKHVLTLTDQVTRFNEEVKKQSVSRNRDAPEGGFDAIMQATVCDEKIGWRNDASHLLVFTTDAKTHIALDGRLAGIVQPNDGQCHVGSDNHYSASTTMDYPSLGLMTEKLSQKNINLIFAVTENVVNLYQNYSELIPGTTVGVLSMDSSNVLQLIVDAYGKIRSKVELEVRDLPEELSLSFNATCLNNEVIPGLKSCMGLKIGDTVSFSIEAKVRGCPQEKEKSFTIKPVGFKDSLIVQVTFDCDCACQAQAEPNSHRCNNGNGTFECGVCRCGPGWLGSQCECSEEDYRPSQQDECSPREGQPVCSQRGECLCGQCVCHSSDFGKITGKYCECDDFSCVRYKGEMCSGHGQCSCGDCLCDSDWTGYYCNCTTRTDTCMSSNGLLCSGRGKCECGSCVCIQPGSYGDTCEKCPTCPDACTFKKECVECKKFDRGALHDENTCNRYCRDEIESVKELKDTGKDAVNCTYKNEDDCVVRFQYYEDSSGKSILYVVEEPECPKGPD

binding result: binds
B1: β43–63, 20-amino-acid peptide derived from the β chain of human fibrinogen E-fragment (peptide)
peptide: ARPAKAAATQKKVERKAPDA
notes: human fibrinogen β chain, N terminus of the β chain of FgnE, named amino acids 43–63; source: synthetic peptide (GenScript Corporation)
